# Measurements published in the supplement of paper PMC9112550, “Optimization of the antimicrobial peptide Bac7 by deep mutational scanning” (BMC Biology, 2022).
# System: Escherichia coli TOP10
# Assay: shrunken log2 fold change of peptide-encoding DNA abundance (4.5 h post-induction vs induction); higher = less antimicrobial activity (less host growth inhibition)
# Settings: time post-induction: 4.5 h; library: site-saturation at positions 5, 18, 19, 20
# 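Note: peptides expressed intracellularly from a pBAD plasmid library in pooled LB shake-flask culture, induced with 0.3% L-arabinose, DNA abundance read by NGS, three biological replicates, DESeq2 with apeglm shrinkage.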
row,Sequence,shrunken log2 fold change
1,RRIRRRPPRLPRPRPRPRYKPRP,-0.0686
2,RRIRRRPPRLPRPRPRPSAHPRP,-0.0606
3,RRIRRRPPRLPRPRPRPSCKPRP,-0.398
4,RRIRRRPPRLPRPRPRPSCYPRP,-0.0677
5,RRIRRRPPRLPRPRPRPSDIPRP,-1.08
6,RRIRRRPPRLPRPRPRPSEEPRP,0.125
7,RRIRRRPPRLPRPRPRPSEKPRP,0.51
8,RRIRRRPPRLPRPRPRPSFDPRP,0.135
9,RRIRRRPPRLPRPRPRPSFRPRP,-0.0185
10,RRIRRRPPRLPRPRPRPSGGPRP,0.318
11,RRIRRRPPRLPRPRPRPSHEPRP,-0.252
12,RRIRRRPPRLPRPRPRPSHWPRP,0.183
13,RRIRRRPPRLPRPRPRPSIRPRP,-0.219
14,RRIRRRPPRLPRPRPRPSKCPRP,-0.47
15,RRIRRRPPRLPRPRPRPSKKPRP,0.144
16,RRIRRRPPRLPRPRPRPSLPPRP,0.44
17,RRIRRRPPRLPRPRPRPSMAPRP,-0.142
18,RRIRRRPPRLPRPRPRPSPAPRP,0.868
19,RRIRRRPPRLPRPRPRPSPIPRP,0.11
20,RRIRRRPPRLPRPRPRPSPWPRP,0.335
21,RRIRRRPPRLPRPRPRPSQAPRP,0.113
22,RRIRRRPPRLPRPRPRPSQCPRP,0.0735
23,RRIRRRPPRLPRPRPRPSSDPRP,0.0273
24,RRIRRRPPRLPRPRPRPSVMPRP,0.157
25,RRIRRRPPRLPRPRPRPTCPPRP,0.415

row,Sequence,shrunken log2 fold change
1,RRIRRRPPRLPRPRPRPTDGPRP,0.0329
2,RRIRRRPPRLPRPRPRPTDHPRP,-0.235
3,RRIRRRPPRLPRPRPRPTEDPRP,0.477
4,RRIRRRPPRLPRPRPRPTFIPRP,-0.0768
5,RRIRRRPPRLPRPRPRPTFTPRP,0.128
6,RRIRRRPPRLPRPRPRPTFYPRP,0.191
7,RRIRRRPPRLPRPRPRPTGRPRP,0.489
8,RRIRRRPPRLPRPRPRPTHSPRP,0.775
9,RRIRRRPPRLPRPRPRPTIQPRP,0.144
10,RRIRRRPPRLPRPRPRPTKGPRP,0.244
11,RRIRRRPPRLPRPRPRPTLEPRP,0.607
12,RRIRRRPPRLPRPRPRPTNMPRP,-0.0659
13,RRIRRRPPRLPRPRPRPTRQPRP,1.33
14,RRIRRRPPRLPRPRPRPTRTPRP,0.681
15,RRIRRRPPRLPRPRPRPTTYPRP,-0.221
16,RRIRRRPPRLPRPRPRPTVKPRP,0.106
17,RRIRRRPPRLPRPRPRPTVMPRP,0.286
18,RRIRRRPPRLPRPRPRPTVPPRP,0.0694
19,RRIRRRPPRLPRPRPRPTWDPRP,0.19
20,RRIRRRPPRLPRPRPRPTWRPRP,0.667
21,RRIRRRPPRLPRPRPRPTYGPRP,0.0875
22,RRIRRRPPRLPRPRPRPTYPPRP,0.0623
23,RRIRRRPPRLPRPRPRPVCFPRP,0.383
24,RRIRRRPPRLPRPRPRPVCYPRP,0.103
25,RRIRRRPPRLPRPRPRPVDIPRP,-0.0798

row,Sequence,shrunken log2 fold change
1,RRIRRRPPRLPRPRPRPVDPPRP,0.253
2,RRIRRRPPRLPRPRPRPVDWPRP,0.577
3,RRIRRRPPRLPRPRPRPVEIPRP,0.048
4,RRIRRRPPRLPRPRPRPVEMPRP,0.483
5,RRIRRRPPRLPRPRPRPVFGPRP,0.329
6,RRIRRRPPRLPRPRPRPVIGPRP,0.149
7,RRIRRRPPRLPRPRPRPVIPPRP,0.272
8,RRIRRRPPRLPRPRPRPVKGPRP,-0.0795
9,RRIRRRPPRLPRPRPRPVLCPRP,0.569
10,RRIRRRPPRLPRPRPRPVNFPRP,-0.0106
11,RRIRRRPPRLPRPRPRPVRDPRP,0.718
12,RRIRRRPPRLPRPRPRPVRGPRP,0.805
13,RRIRRRPPRLPRPRPRPVRTPRP,0.328
14,RRIRRRPPRLPRPRPRPVSAPRP,0.588
15,RRIRRRPPRLPRPRPRPVSCPRP,-0.121
16,RRIRRRPPRLPRPRPRPVSPPRP,0.0657
17,RRIRRRPPRLPRPRPRPVSQPRP,0.264
18,RRIRRRPPRLPRPRPRPVTRPRP,0.169
19,RRIRRRPPRLPRPRPRPVVQPRP,0.534
20,RRIRRRPPRLPRPRPRPVVYPRP,0.152
21,RRIRRRPPRLPRPRPRPVWEPRP,0.00461
22,RRIRRRPPRLPRPRPRPVWMPRP,0.561
23,RRIRRRPPRLPRPRPRPWAQPRP,0.882
24,RRIRRRPPRLPRPRPRPWFMPRP,-0.125
25,RRIRRRPPRLPRPRPRPWFSPRP,-0.0902

row,Sequence,shrunken log2 fold change
1,RRIRRRPPRLPRPRPRPWGLPRP,-0.222
2,RRIRRRPPRLPRPRPRPWIDPRP,-0.0585
3,RRIRRRPPRLPRPRPRPWIEPRP,-0.0568
4,RRIRRRPPRLPRPRPRPWKCPRP,-0.0487
5,RRIRRRPPRLPRPRPRPWKKPRP,-0.0288
6,RRIRRRPPRLPRPRPRPWLCPRP,0.102
7,RRIRRRPPRLPRPRPRPWPRPRP,0.349
8,RRIRRRPPRLPRPRPRPWQVPRP,0.0694
9,RRIRRRPPRLPRPRPRPWVVPRP,-0.0166
10,RRIRRRPPRLPRPRPRPWVYPRP,0.0234
11,RRIRRRPPRLPRPRPRPWWHPRP,0.0484
12,RRIRRRPPRLPRPRPRPYACPRP,-0.207
13,RRIRRRPPRLPRPRPRPYAVPRP,-0.191
14,RRIRRRPPRLPRPRPRPYCPPRP,-0.187
15,RRIRRRPPRLPRPRPRPYDDPRP,-0.577
16,RRIRRRPPRLPRPRPRPYEEPRP,-0.3
17,RRIRRRPPRLPRPRPRPYELPRP,-0.297
18,RRIRRRPPRLPRPRPRPYEMPRP,-0.0957
19,RRIRRRPPRLPRPRPRPYFSPRP,-0.122
20,RRIRRRPPRLPRPRPRPYGIPRP,-0.161
21,RRIRRRPPRLPRPRPRPYGTPRP,-0.231
22,RRIRRRPPRLPRPRPRPYIIPRP,-0.427
23,RRIRRRPPRLPRPRPRPYKFPRP,0.0202
24,RRIRRRPPRLPRPRPRPYKNPRP,-0.47
25,RRIRRRPPRLPRPRPRPYLQPRP,-0.548

row,Sequence,shrunken log2 fold change
1,RRIRRRPPRLPRPRPRPYMFPRP,-0.448
2,RRIRRRPPRLPRPRPRPYMLPRP,-0.685
3,RRIRRRPPRLPRPRPRPYNRPRP,-0.276
4,RRIRRRPPRLPRPRPRPYRWPRP,-0.356
5,RRIRRRPPRLPRPRPRPYRYPRP,0.0464
6,RRIRRRPPRLPRPRPRPYSGPRP,-0.000826
7,RRIRRRPPRLPRPRPRPYVQPRP,0.0531
8,RRIRRRPPRLPRPRPRPYWAPRP,-0.199
9,RRIRRRPPRLPRPRPRPYYMPRP,-0.408
10,RRIRRRPPRLPRPRPRPYYSPRP,-0.532
11,RRIRRRPPRLPRPRPRPYYVPRP,-0.427
12,RRIRSRPPRLPRPRPRPAAAPRP,0.868
13,RRIRSRPPRLPRPRPRPAADPRP,0.252
14,RRIRSRPPRLPRPRPRPACTPRP,0.28
15,RRIRSRPPRLPRPRPRPADDPRP,0.479
16,RRIRSRPPRLPRPRPRPADFPRP,-0.0669
17,RRIRSRPPRLPRPRPRPAEHPRP,0.0851
18,RRIRSRPPRLPRPRPRPAEIPRP,-0.136
19,RRIRSRPPRLPRPRPRPAEPPRP,-0.16
20,RRIRSRPPRLPRPRPRPAEYPRP,-0.0544
21,RRIRSRPPRLPRPRPRPAFCPRP,0.259
22,RRIRSRPPRLPRPRPRPAGCPRP,0.459
23,RRIRSRPPRLPRPRPRPAGDPRP,0.116
24,RRIRSRPPRLPRPRPRPAHIPRP,-0.0188
25,RRIRSRPPRLPRPRPRPAIFPRP,0.0447

row,Sequence,shrunken log2 fold change
1,RRIRSRPPRLPRPRPRPAIIPRP,0.0969
2,RRIRSRPPRLPRPRPRPAINPRP,-0.131
3,RRIRSRPPRLPRPRPRPAKMPRP,-0.0464
4,RRIRSRPPRLPRPRPRPALLPRP,0.42
5,RRIRSRPPRLPRPRPRPAMSPRP,-0.0932
6,RRIRSRPPRLPRPRPRPANPPRP,0.11
7,RRIRSRPPRLPRPRPRPAPSPRP,1.24
8,RRIRSRPPRLPRPRPRPASNPRP,-0.101
9,RRIRSRPPRLPRPRPRPASVPRP,0.377
10,RRIRSRPPRLPRPRPRPATRPRP,0.415
11,RRIRSRPPRLPRPRPRPAWLPRP,0.534
12,RRIRSRPPRLPRPRPRPAWQPRP,0.0367
13,RRIRSRPPRLPRPRPRPAYLPRP,-0.731
14,RRIRSRPPRLPRPRPRPCCDPRP,-0.284
15,RRIRSRPPRLPRPRPRPCCTPRP,-0.0345
16,RRIRSRPPRLPRPRPRPCDHPRP,-0.138
17,RRIRSRPPRLPRPRPRPCDQPRP,-0.0341
18,RRIRSRPPRLPRPRPRPCDVPRP,-0.0124
19,RRIRSRPPRLPRPRPRPCFRPRP,-0.349
20,RRIRSRPPRLPRPRPRPCFWPRP,0.294
21,RRIRSRPPRLPRPRPRPCGAPRP,0.327
22,RRIRSRPPRLPRPRPRPCGEPRP,0.385
23,RRIRSRPPRLPRPRPRPCHSPRP,0.00316
24,RRIRSRPPRLPRPRPRPCIIPRP,0.00867
25,RRIRSRPPRLPRPRPRPCMQPRP,-0.31
